Measured values taken from patent US20230095569A1 (ANTENGENE BIOLOGICS, published 2023).
Numbering of substitutions follows the chain as printed.

B1: IMAB362 (Zolbetuximab) (antibody, V domains shown)
VH: QVQLQQPGAELVRPGASVKLSCKASGYTFTSYWINWVKQRPGQGLEWIGNIYPSDSYTNYNQKFKDKATLTVDKSSSTAYMQLSSPTSEDSAVYYCTRSWRGNSFDYWGQGTTLTVSS
VL: DIVMTQSPSSLTVTAGEKVTMSCKSSQSLLNSGNQKNYLTWYQQKPGQPPKLLIYWASTRESGVPDRFTGSGSGTDFTLTISSVQAEDLAVYYCQNDYSYPFTFGSGTKLEIKR
B2: chAb17 (antibody, V domains shown)
VH: QVQLKESGPGLVAPSQSLSITCTVSGFSLTSYAISWVRQPPGKGLEWLGEIWTGGGTNYNSALKSRLSISKDNSKSQVFLKMNSLQTDDTARYYCGRLSYGNSLDYWGQGTTLTVSS
VL: DIVMTQSPSSLTVTAGEKVTMSCKSSQSLLNSGNQKNYLTWYQQKPGQPPKLLIYWASTRESGVPDRFTGSGSGTDFTLTVSSVQAEDLAVYYCQNNFIYPLTFGPGTKLELK
B3: chAb05 (antibody, V domains shown)
VH: DVKLVESGEDLVKPGGSLKLSCAASGFTFSNYAMSWVRQTPEKRLEWVAYVSSGGDYIYYADTVKGRFIISRDNARNTLYLQMNSLRSEDTAMYYCARVYFGNSLDYWGQGTTLTVSS
VL: DIVMTQSPSSLTVTAGEKVTLSCKSSQSLLNGGNQKNYLTWYQQRPGQPPKLLIYWASTRESGVPDRFTGSGSGTDFTLIISSVQAEDLAVYYCQNDYYYPWTFGGGTKLEIK
B4: chAb08 (antibody, V domains shown)
VH: QVQLQQPGAELVKPGASVKLSCKASGYTFTSYLLHWVKQRPGQGLEWIGMIHPNGGSTNYNEKFKTKATLTVDKSSSTAYMQLSSLTSEDSAVYYCAPVYFGNSFAYWGQGTLVTVSA
VL: B3 VL with L21M, G32S, R45K, I80T, W102F, G106S, I112K
B5: chAb11 (antibody, V domains shown)
VH: EVMLVESGGDLVKPGGSLKLSCAASGFTFSRYTMSWVRQTPEKRLEWVATVSVGSGNTYYLDSVKGRFTISRDNAKNTLFLQMNSLRSEDTALYYCTRLGQTQRNAVDYWGQGTSVTVSS
VL: DIVMTQSPSFLSVSAGEKVTMSCKSSQSLFNGGNQKNYLAWYQQKPGQPPKLLIYGASTRDSGVPDRFTGSGSGTDFTLTISNVQAEDLAIYFCQNDHSFPLTFGAGTKLELK
B6: chAb18 (antibody, V domains shown)
VH: QVQLKESGPGLVAPSQSLSITCTVSGFSLTTYGINWVRQPPGKGLEWLGVIWGDGSTNYHSALISRLSISKDNSKSQVFLKLNSLQTDDTATYYCVKSSYYGNAMDYWGQGTSVTVSS
VL: DIVMTQSPSSLTVTAGETVTMSCKSSQSLLNSGNQKNYLTWYQQKPGQPPKLLIYWASTRESGVPDRFTGSGSGTDFTLTISSVQAEDLAVYYCQNVYSYPFTFGSGTKLEI
B7: chAb24 (antibody, V domains shown)
VH: EVKLVESGGGLVKPGGSLKLSCAGSGFTFSSYTMSWVRQTPEKRLEWVATITIGVNIYYLDSVKGRFTISRDNAKNTLYLQMNSLRSEDTALYYCTRLGQTQRNAMDYWGQGTSVTVSS
VL: DIVMTQSPTSLSVSAGEKVTMTCKSSQSLFNSGNQKNYLAWYQEKPGQPPKLLIYGASTRESGVPDRFTGSGSGTDFTLTISSVQAEDLAVYYCQNVHFYPFTFGAGTKLEL
B8: chAb25 (antibody, V domains shown)
VH: EAQLQQSGPELVKPGASVKIFCKASGYTFTDYYINWVKQSHGKSLEWIGDINPNNGGTTYNQKFKGKATLTVDKSSSTASMELRRLTSEDSSVYYCARRDAMDYWGQGTSVTVSS
VL: DIVMTQSQKFMSTTVGDRVSITCTASQNVGPAVAWYQQKPGQSPKLLIYSASRRFTGVPDRFTGSGSGTVFTLTINNVQSEDLADYFCQQYISYPLTFGAGTKLELK
B9: chAb30 (antibody, V domains shown)
VH: QVQLKESGPGLVAPSQSLSITCTVSGFSLTKFGVNWVRQPPGKGLEWLGAIWGDGSTNYHSALISRLSINKDNSKSQVFLKLSSLQNVDTATYYCAKSGYGNAMDYWGHGTSVTVSS
VL: DIVMTQSPSSLTVTTGEKVTLNCKSSQSLLNSGNLKNYLTWYQQRPGQPPKLLIYWASTRESGVPYRFTGSGSGTDFTLTISNVQAEDLAIYYCQNDYFFPFTFGSGTKLEIK
B10: chAb29 (antibody, V domains shown)
VH: EVLLQQSGPELVKPGASVKIPCKASGYTLTDHSMDWVKQSHGKSLEWIGNILPNNGGNIYNQKFRGKATLTVDKSSSTAYMELRSLTSEDTAVYNCARGHYGNSFAYWGQGTLVIVS
VL: DIVMTQSPSSLTVRAGEKVTIYCKSSQSLFNSGNQKNYLTWYQQKPGQPPKLLIYWASTRESGVPHRFTGSGSGTDFTLTISSMQADDLATYYCQNGYFFPYTFGGGTKLEIK
B11: chAb31 (antibody, V domains shown)
VH: QIQLAQSGPELKKPGETVKISCKASGYSFTNYGMNWVKQAPGKGLKWMGWINTYSGETKYADDFKGRFDFSLETSARTAYLQIKNLKIEDTATYFCARRDAMDYWGQGTSVTVSS
VL: DIVMTQAAPSVPVTPGESVSISCRSSKSLLNSNGNTYLYWFLQRPGQSPQLLIYRMSNLASGVPDRFSGSGSGTAFTLRISRVEAEDVGVYYCMQHLEFPFTFGSGTKLEIK
B12: chAb06 (antibody, V domains shown)
VH: EVQLVASGGGLVKPGGSLKLSCAASGITFRSYAMSWVRQTPEKRLEWVATITDGGSYIFYPDNVKGRFTISGDHAKNNLYLQMSHLKSEDTALYFCVRLYYGNSFAYWGQGTLVTVSA
VL: B2 VL with M21L, S22N, L30F, V81F, N97A, F98Y, L102F, P106S, L112I
B13: chAb04 (antibody, V domains shown)
VH: EVQLQQSGPELVKPGASVKMSCMASGYTFTDYNIHWVKRSHGSRLEWIGYISPISGGAGYNQKFMDKATLTVDKSSNTAYMELRSLTSEDSAVYYCTRGDYWGQGTTLTVSS
VL: DIVMTQSPSSLAVTVGEKVTMSCKSSQSLLNSGNQKNYLTWYQQKPGQPPKLLIYWASTRKSGVPDRFTGSGSGTDFTLTISSVQAEDLGIYYCLNDYGFPLTFGAGSKLELK

Each binder was assayed against T1, human Claudin18.2 (CLDN18.2) (human, UniProt P56856 1-261) (assay: FACS on CHOK1-18.2 cells).
T1 construct: the cell line is named under assay; also called human Claudine18.2; hClaudin18.2

Binder | EC50
B1 | 5.69 nM
B2 | 4.74 nM
B3 | 5 nM
B4 | 3.6 nM
B5 | 3.63 nM
B6 | 7.71 nM
B7 | 4.99 nM
B8 | 8.27 nM
B9 | 9.76 nM
B10 | 6.63 nM
B11 | 5.17 nM
B12 | 5.42 nM
B13 | 2.14 nM

These binders were tested against T1, human Claudin18.2 (CLDN18.2) (assay: FACS on CHOK1-18.2 cells, antibody at 50 µg/ml).

Binder | MAX MFI
B1 | 49600
B2 | 83800
B3 | 83900
B4 | 71900
B5 | 85600
B6 | 60200
B7 | 64500
B8 | 56100
B9 | 65000
B10 | 63400
B11 | 59900
B12 | 92800
B13 | 75300

Each binder was assayed against T1, human Claudin18.2 (CLDN18.2) (assay: cell-based or functional assay).

Binder | CDC EC50 | Max CDC induced tumor cell killing (% of control)
B1 | 809 nM | 52.5 % of control
B2 | 9.93 nM | 70.8 % of control
B3 | 17.8 nM | 78.9 % of control
B4 | 13.6 nM | 68.4 % of control
B5 | 19.4 nM | 71.2 % of control
B6 | 35 nM | 75.3 % of control
B7 | 12.8 nM | 70.7 % of control
B8 | 25.4 nM | 72.9 % of control
B9 | 23.2 nM | 76.1 % of control
B10 | 12.7 nM | 67.8 % of control
B11 | 37.9 nM | 60.7 % of control
B12 | 9.72 nM | 75.4 % of control

The binders below were run against T1, human Claudin18.2 (CLDN18.2) (assay: FACS on GAXC031 cells, antibody at 50 µg/ml).

Binder | MAX MFI
B1 | 742
B2 | 4230
B3 | 4600
B4 | 5830
B5 | 6420
B6 | 3690
B7 | 5860
B8 | 3020
B9 | 4460
B10 | 5640
B11 | 3770
B12 | 5460
B13 | 3860

Target: T1, human Claudin18.2 (CLDN18.2)
Test: cell-based or functional assay
Remark: another data set of the same source

Binder | IC50 of indirect ADC cytotoxicity | Max inhibition %
B1 | 4.75 nM | 81.8%
B2 | 0.88 nM | 92.4%
B3 | 0.99 nM | 92.3%
B4 | 0.45 nM | 92.5%
B5 | 0.87 nM | 93.5%
B6 | 1.58 nM | 90.7%
B7 | 0.85 nM | 92.7%
B8 | 0.86 nM | 92.9%
B9 | 1.58 nM | 92.4%
B10 | 0.91 nM | 93.5%
B11 | 2.35 nM | 91.7%
B12 | 0.61 nM | 91.8%

Target: T1, human Claudin18.2 (CLDN18.2)
Test: cell-based or functional assay
Remark: another data set of the same source

Binder | ADCC EC50 | Max tumor cell killing (% of control), ADCC
B1 | 36.1 nM | 30.7 % of control
B2 | 2.46 nM | 60.6 % of control
B3 | 5.92 nM | 57.9 % of control
B4 | 2.22 nM | 69.3 % of control
B5 | 3.7 nM | 54.7 % of control
B6 | 5.07 nM | 61.5 % of control
B7 | 4.46 nM | 66.6 % of control
B8 | 8.38 nM | 76.8 % of control
B9 | 7.44 nM | 80.2 % of control
B10 | 5.27 nM | 60.9 % of control
B11 | 8.16 nM | 78.8 % of control
B12 | 3.01 nM | 40.6 % of control

What follows are binders tested against T1, human Claudin18.2 (CLDN18.2) (assay: FACS on GAXC031 cells).

Binder | EC50
B1 | 36.1 nM
B2 | 94.2 nM
B3 | 73.8 nM
